Values of other authors in article PMC2921030.

Target: 4E-BP1 peptide (Homo sapiens) (UniProt Q13541)
Sequence of UniProt Q13541 (Q13541 2-118): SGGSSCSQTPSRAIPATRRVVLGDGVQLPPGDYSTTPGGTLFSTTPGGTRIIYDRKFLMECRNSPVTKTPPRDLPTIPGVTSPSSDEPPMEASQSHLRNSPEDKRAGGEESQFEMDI

Substance: eIF4E (from UniProt P06730)
- Kd: < 50 nM
